According to patent publication US20200024330A1:

Key:
Assay in all cases: cell-based or functional assay
[1] = biological target: HIV-1 92RW008 envelope glycoprotein (Env) (HIV-1)
[2] = biological target: HIV-1 93UG077 envelope glycoprotein (Env) on pseudovirus (HIV-1)
[3] = biological target: HIV-1 98IN022 envelope glycoprotein (Env) on pseudovirus (HIV-1)
[4] = biological target: HIV-1 CMU02 envelope glycoprotein (Env) on pseudovirus (HIV-1)
[5] = biological target: HIV-1 Env of isolate CMU02 (HIV-1)
[6] = biological target: HIV-1 Env of isolate MGRM-D-001 (clade D) (HIV-1)
[7] = biological target: HIV-1 Env of isolate MGRM-D-019 (clade D) (HIV-1)
[8] = biological target: HIV-1 Env of isolate MGRM-G-015 (clade G pseudovirus) (HIV-1)
[9] = biological target: HIV-1 Env of pseudovirus APV_17, clade B (HIV-1)
[10] = biological target: HIV-1 JR-CSF envelope protein (Env) on pseudovirus (HIV-1) (UniProt P20871)
[11] = biological target: HIV-1 LAVIC_18 Env (HIV-1)
[12] = biological target: HIV-1 MGRM-A-010 envelope glycoprotein (Env) (HIV-1)
[13] = biological target: HIV-1 MGRM-C-005 Env (HIV-1)
[14] = biological target: HIV-1 MGRM-C-014 Env (HIV-1)
[15] = biological target: HIV-1 MGRM-C-017 Env (HIV-1)
[16] = biological target: HIV-1 MGRM-C-025 Env (HIV-1)
[17] = biological target: HIV-1 MGRM-F1-020 Env (pseudovirus) (HIV-1)
[18] = biological target: aMLV envelope protein on pseudovirus
[19] = biological target: HIV-1 Env of isolate 92TH021 (HIV-1)
[20] = biological target: HIV-1 Env of isolate 92RW008 (HIV-1)
[21] = biological target: HIV-1 Env of isolate MGRM-D-005 (HIV-1)
[22] = biological target: HIV-1 Env of isolate MGRM-D-020 (HIV-1)
[23] = biological target: HIV-1 Env of isolate MGRM-G-009 (subtype G) (HIV-1)
[24] = biological target: HIV-1 Env of isolate MGRM-G-024 (subtype G) (HIV-1)
[25] = biological target: HIV-1 Env of isolate MG RM-D-016 (subtype D) (HIV-1)
[26] = biological target: HIV-1 Env of isolate MG RM-D-021 (subtype D) (HIV-1)
[27] = biological target: HIV-1 Env of isolate MG RM-D-022 (subtype D) (HIV-1)
[28] = biological target: HIV-1 Env of isolate MGRM-C-006 (pseudovirus) (HIV-1 isolate MGRM-C-006, subtype C)
[29] = biological target: HIV-1 JR-CSF Env D113A (HIV-1 (isolate JR-CSF)) (UniProt P20871)
[30] = biological target: HIV-1 JR-CSF Env E172A (HIV-1 (isolate JR-CSF)) (UniProt P20871)
[31] = biological target: HIV-1 JR-CSF Env N134A (HIV-1 (isolate JR-CSF)) (UniProt P20871)
[32] = biological target: HIV-1 JR-CSF Env N197A (HIV-1 (isolate JR-CSF)) (UniProt P20871)
[33] = biological target: HIV-1 JR-CSF Env R480A (HIV-1 (isolate JR-CSF)) (UniProt P20871)
[34] = biological target: HIV-1 Env of isolate 92WR020 (HIV-1)
[35] = biological target: HIV-1 Env of isolate 92WR021 (HIV-1)
[36] = biological target: HIV-1 Env of isolate 93WR029 (HIV-1)
[37] = biological target: HIV-1 Env of isolate SF162 (HIV-1) (UniProt P19550)
[38] = biological target: HIV-1 Env of isolate THR0.18 (HIV-1)

Row | Substance | IC50 (µg/ml), pseudovirus neutralization [1] [µg/mL] | IC50 (µg/ml), pseudovirus neutralization [3] [µg/mL] | IC50 (µg/ml), pseudovirus neutralization [5] [µg/mL] | IC50 (µg/ml), pseudovirus neutralization [6] [µg/mL] | IC50 (µg/ml), pseudovirus neutralization [7] [µg/mL] | IC50 (µg/ml), pseudovirus neutralization [8] [µg/mL] | IC50 (µg/ml), pseudovirus neutralization [9] [µg/mL] | neutralization IC50 [10] [µg/mL] | IC50 [11] [µg/mL] | IC50 (µg/ml), pseudovirus neutralization [12] [µg/mL] | IC50 [13] [µg/mL] | IC50 [14] [µg/mL] | IC50 [15] [µg/mL] | IC50 [16] [µg/mL] | IC50 (µg/ml), pseudovirus neutralization [17] [µg/mL] | neutralization IC50 [18] [µg/mL] | neutralization IC50 [23] [µg/mL] | neutralization IC50 [24] [µg/mL] | further results
1 | 2F5 (antibody) | 10.4 | > 50 | 0.6 | 0.63 | 0.14 | 0.43 | 4.61 | 3.36 | > 50 | 20.8 | > 50 | > 50 | > 50 | > 50 | 0.59 | > 50 |  |  | IC90 (pseudovirus neutralization) [2]: 33.4 µg/mL; IC90 (pseudovirus neutralization) [4]: 12.2 µg/mL
2 | 2G12 (antibody) | 22.5 | > 50 | > 50 | > 50 | > 50 | > 50 | > 50 | 0.66 | > 50 | 17 | > 50 | > 50 | > 50 | > 50 | > 50 | > 50 |  |  | IC90 (pseudovirus neutralization) [2]: > 50 µg/mL; IC90 (pseudovirus neutralization) [4]: > 50 µg/mL; IC50 (µg/ml), pseudovirus neutralization [19]: > 50 µg/mL
3 | 4E10 (antibody) | 14.5 | 0.53 | 0.72 | 1.84 | 0.04 | 1.07 | 10.5 | 6 | > 50 | 14.4 | 16.4 | 2.48 | 1.47 | 5.58 | 0.66 | > 50 |  |  | IC90 (pseudovirus neutralization) [2]: > 50 µg/mL; IC90 (pseudovirus neutralization) [4]: 13.4 µg/mL; IC50 (µg/ml), pseudovirus neutralization [19]: 1.17 µg/mL
4 | 1443_C16 (PG16) (TCN-116) (antibody) | 0.002 | 0.003 | 43.6 | > 50 | 0.01 | 5.33 | 24.8 | < 0.0025 | 0.02 | 0.004 | 2.55 | > 50 | 1.8 | 0.04 | 4.35 | > 50 |  |  | IC90 (pseudovirus neutralization) [2]: > 50 µg/mL; IC90 (pseudovirus neutralization) [4]: > 50 µg/mL; IC50 (µg/ml), pseudovirus neutralization [19]: 0.1 µg/mL
5 | 1495_C14 (PGC14) (antibody) | 37 | 9 | > 50 | > 50 | > 50 | > 50 | > 50 | > 50 | > 50 | > 50 | > 50 | > 50 | > 50 | > 50 | > 50 | > 50 |  |  | IC50 (µg/ml), pseudovirus neutralization [19]: > 50 µg/mL
6 | 1496_C09 (PG9) (TCN-109) (antibody) | 0.01 | 0.006 | 7.69 |  | 0.03 | 1.51 | 14.6 | < 0.0025 | 0.1 |  | 2.98 | 0.64 | 1.52 | 0.17 | 4.55 |  | 10.7 | 0.163 | IC50 [20]: 6 ng/mL; IC50 (µg/mL), pseudovirus neutralization [19]: 0.059 µg/mL; IC50 (µg/ml), pseudovirus neutralization [19]: 0.09 µg/mL; IC50 (µg/mL), pseudovirus neutralization [21]: 1.8 µg/mL; IC50 (µg/mL), pseudovirus neutralization [22]: 1.67 µg/mL; IC50 neutralization [12]: 0.0375 µg/mL
7 | 4838_L06 (PGT-121) (antibody) |  |  |  |  |  |  |  |  |  |  |  |  |  |  |  |  |  |  | IC50 (ug/ml), neutralizing activity [4]: > 10 µg/mL; IC50 (µg/mL), pseudovirus neutralization [25]: > 50 µg/mL; IC50 (µg/mL), pseudovirus neutralization [26]: 5.33 µg/mL; IC50 (µg/mL), pseudovirus neutralization [27]: > 50 µg/mL; IC50 (µg/mL) neutralization [28]: 0.017 µg/mL
8 | 4877_D15 (PGT-122) (antibody) |  |  |  |  |  |  |  |  |  |  |  |  |  |  |  |  |  |  | IC50 (ug/ml), neutralizing activity [2]: 0.191 µg/mL; IC50 (ug/ml), neutralizing activity [4]: > 10 µg/mL; IC50 (µg/mL), pseudovirus neutralization [25]: > 50 µg/mL; IC50 (µg/mL), pseudovirus neutralization [26]: 11.7 µg/mL; IC50 (µg/mL), pseudovirus neutralization [27]: > 50 µg/mL; IC50 (µg/mL) neutralization [28]: 0.018 µg/mL
9 | 5145_B14 (PGT-127) (antibody) |  |  |  |  |  |  |  |  |  |  |  |  |  |  |  |  |  |  | IC50 (µg/mL), pseudovirus neutralization [25]: > 50 µg/mL; IC50 (µg/mL), pseudovirus neutralization [26]: 0.056 µg/mL; IC50 (µg/mL), pseudovirus neutralization [27]: > 50 µg/mL; IC50 (µg/mL) neutralization [28]: 0.319 µg/mL; Fold IC50 increase relative to wild-type [29]: 0.3 fold; Fold IC50 increase relative to wild-type [30]: 2.1 fold; Fold IC50 increase relative to wild-type [31]: 1 fold; Fold IC50 increase relative to wild-type [32]: 0.6 fold; Fold IC50 increase relative to wild-type [33]: 0.2 fold
10 | PGT-121 (antibody) |  |  |  |  |  |  |  |  |  |  |  |  |  |  |  |  |  |  | IC50 (µg/mL), pseudovirus neutralization [20]: 0.003 µg/mL; IC50 (µg/mL), pseudovirus neutralization [19]: > 50 µg/mL; IC50 (µg/mL), pseudovirus neutralization [34]: 0.004 µg/mL; IC50 (µg/mL), pseudovirus neutralization [35]: 0.009 µg/mL; IC50 (µg/mL), pseudovirus neutralization [36]: > 50 µg/mL; IC50 (µg/mL), pseudovirus neutralization [5]: > 50 µg/mL; IC50 neutralization [12]: 2.61 µg/mL
11 | PGT-122 (antibody) |  |  |  |  |  |  |  |  |  |  |  |  |  |  |  |  |  |  | IC50 (µg/mL), pseudovirus neutralization [20]: 0.003 µg/mL; IC50 (µg/mL), pseudovirus neutralization [19]: > 50 µg/mL; IC50 (µg/mL), pseudovirus neutralization [34]: 0.009 µg/mL; IC50 (µg/mL), pseudovirus neutralization [35]: 0.021 µg/mL; IC50 (µg/mL), pseudovirus neutralization [36]: > 50 µg/mL; IC50 (µg/mL), pseudovirus neutralization [5]: > 50 µg/mL; IC50 neutralization [12]: 1.68 µg/mL
12 | PGT-141 (4964_G22; 4993_K13) (antibody) |  |  |  |  |  |  |  |  |  |  |  |  |  |  |  |  | 1.89 | 0.051 | 
13 | PGT-142 (4995_E20) (antibody) |  |  |  |  |  |  |  |  |  |  |  |  |  |  |  |  | 2.81 | 0.054 | 
14 | PGT-143 (4980_N08) (antibody) |  |  |  |  |  |  |  |  |  |  |  |  |  |  |  |  | 2.97 | 0.048 | 
15 | PGT-144 (4970_K22) (antibody) |  |  |  |  |  |  |  |  |  |  |  |  |  |  |  |  | > 50 | 7.92 | 
16 | PGV04 (antibody) |  |  |  |  |  |  |  |  |  |  |  |  |  |  |  |  | 0.043 | 0.033 | IC50 [20]: 14 ng/mL; IC50 (µg/mL), pseudovirus neutralization [19]: 1.29 µg/mL; IC50 (µg/mL), pseudovirus neutralization [5]: 1.24 µg/mL; IC50 (µg/mL), pseudovirus neutralization [21]: > 50 µg/mL; IC50 (µg/mL), pseudovirus neutralization [22]: 0.097 µg/mL
17 | VRC01 (antibody) |  |  |  |  |  |  |  |  |  |  |  |  |  |  |  |  | 0.073 | 0.025 | IC50, pseudovirus neutralization [22]: 0.192 µg/mL; neutralization IC50 [37]: 0.421 µg/mL; neutralization IC50 [38]: 2.46 µg/mL
18 | b12 (antibody) | 9.46 | 0.42 | 29.3 | > 50 | > 50 | > 50 | > 50 | 0.16 | > 50 | > 50 | 2.66 | > 50 | > 50 | > 50 | > 50 | > 50 |  |  | IC90 (pseudovirus neutralization) [2]: > 50 µg/mL; IC90 (pseudovirus neutralization) [4]: 34.2 µg/mL
